This experiment has as its target A. franciscana ATP synthase c-subunit (c8-ring) (A. franciscana (endogenous in A. franciscana mitochondria)). Kind of experiment: cryo-EM structure; single-particle cryo-EM of the ATP synthase monomer purified from A. franciscana mitochondria in DDM at pH 7.0; rotational states 1, 2 and 3a; local refinement of F1 and FO.

We go through one substance from article PMC12325954.

Turning to “A. franciscana ATP synthase c-subunit (c8-ring) (natural protein)”, the stoichiometry N was 8.
